{
  "source": "patent US9878046B2",
  "about": "“Adverse side-effects associated with administration of an anti-hyaluronan agent and methods for ameliorating or preventing the side-effects” (Halozyme, Inc., priority 2010, dated 2018)",
  "molecules": {"B1": {"name": "PEGPH20 (protein)", "chain": "LNFRAPPVIPNVPFLWAWNAPSEFCLGKFDEPLDMSLFSFIGSPRINATGQGVTIFYVDRLGYYPYIDSITGVTVNGGIPQKISLQDHLDKAKKDITFYMPVDNLGMAVIDWEEWRPTWARNWKPKDVYKNRSIELVQQQNVQLSLTEATEKAKQEFEKAGKDFLVETIKLGKLLRPNHLWGYYLFPDCYNHHYKKPGYNGSCFNVEIKRNDDLSWLWNESTALYPSIYLNTQQSPVAATLYVRNRVREAIRVSKIPDAKSPLPVFAYTRIVFTDQVLKFLSQDELVYTFGETVALGASGIVIWGTLSIMRSMKSCLLLDNYMETILNPYIINVTLAAKMCSQVLCQEQGVCIRKNWNSSDYLHLNPDNFAIQLEKGGKFTVRGKPTLEDLEQFSEKFYCSCYSTLSCKEKADVKDTDAVDVCIADGVCIDAFLKPPMETEEPQIFY"}},
  "key": {"HA catabolites": {"tested_on": "HA catabolites", "test": "HA catabolites in dogs", "assay_type": "in vivo, beagle dog", "conditions": "after PEGPH20 administration, with or without dexamethasone", "method": "HA catabolites also were measured as described in Example 6."}, "[1]": {"test": "Hyaluronidase activity (microturbidity assay), specific activity", "assay_type": "biochemical", "method": "Hyaluronidase activity of soluble rHuPH20 is measured by incubating soluble rHuPH20 with sodium hyaluronate (hyaluronic acid) for a set period of time (10 minutes) and then precipitating the undigested sodium hyaluronate with the addition of acidified serum albumin. The turbidity of the resulting sample is measured at 640 nm after a 30 minute development period.\nDilutions of the sample were prepared in Enzyme Diluent Solutions. The Enzyme Diluent Solution was prepared by dissolving 33.0±0.05 mg of hydrolyzed gelatin in 25.0 mL of the 50 mM PIPES Reaction Buffer (140 mM NaCl, 50 mM PIPES, pH 5.5) and 25.0 mL of sterile water for injection (SWFI), and diluting 0.2 mL of 25% Buminate solution into the mixture and vortexing for 30 seconds. This was performed within 2 hours of use and stored on ice until needed. The samples were diluted to an estimated 1-2 U/mL. […]\nThe MULTIDROP 384 was prepared to stop the reaction by priming the machine with Serum Working Solution and changing the volume setting to 240 μL. […] The plate was removed and shaken on a plate reader for 10 seconds. After a further 15 minutes, the turbidity of the samples was measured at 640 nm and the hyaluronidase activity (in U/mL) of each sample was determined by fitting to the standard curve.\nSpecific activity (Units/mg) was calculated by dividing the hyaluronidase activity (U/ml) by the protein concentration (mg/mL)."}, "[2]": {"test": "Tolerability / musculoskeletal response to PEGPH20 in beagle dogs", "assay_type": "in vivo, beagle dog"}, "[3]": {"tested_on": "hyaluronan present in the circulation", "test": "Plasma HA and catabolites (disaccharide assay) in patients", "assay_type": "in vivo, human", "method": "This Example describes a method for the determination of the HA-disaccharide content in plasma. The method employs the hydrolysis of HA with Chondroitinase ABC to release the HA-disaccharides, derivatize them with 2-amino acridone (AMAC) and analyze them on a reverse-phase HPLC coupled with fluorescence detection. Quantitation of the HA-disaccharides is accomplished by comparison with HA-disaccharide standards.\nNext, the sample was hydrolyzed. The sample (e.g. plasma) was prepared by taking approximately 100 μg of protein in a polypropylene tube and adjusting the volume to 340 μl with water. A matrix blank also was prepared by taking dilution buffer (1.59 g HEPES, 5.07 g NaCl, 1800 mL water, pH 7.0) equal to the volume of the sample and adjusting the volume to 340 μl. Hydrolysis of the samples and matrix blank were effected by adding 60 μl of TFA to the sample tube and matrix blank tube and the contents were mix and incubated at 100° C. for 4 hours. The vials were allowed to cool to room temperature. The vials were evaporated to dryness using a speed vac. Then, 300 μl of water was added to each tube and vortexed to resuspend the samples. […]\nThe enzymatic activity of PEGPH20 was measured by monitoring concentrations of hyaluronan present in the circulation."}, "[4]": {"test": "Dexamethasone premedication and PEGPH20-induced musculoskeletal observations", "procedure": "In one study, four naïve male beagle dogs were orally dosed with 4 mg/dose dexamethasone twice a day on the day of PEGPH20 administration. The first dexamethasone dose was given orally (PO) immediately before PEGPH20 intravenous (IV) administration. The second dexamethasone dose was given orally ˜8 hours later. On day 1, one dog was dosed with 3040 U/kg (0.08 mg/kg) PEGPH20 after Dexamethasone. Twenty four hours later (day 2), a second dog was dosed with 5700 U/kg (0.15 mg/kg) PEGPH20 after Dexamethasone. Twenty four hours later (day 3), a third dog was dosed with 11400 U/kg (0.3 mg/kg) PEGPH20 after Dexamethasone. Twenty four hours later (day 4), a fourth dog was dosed with 38000 U/kg (1.0 mg/kg) PEGPH20 after Dexamethasone. Blood was collected pre-PEGPH20 administration, and 0.5 hr, 4 h and 24 h post-PEGPH20 administration.\nPEGPH20 was administered IV with a 5 mL bolus injection via percutaneous needle puncture of the cephalic vein on study Days 1, 2 and/or 5. Dexamethasone was administered orally immediately before the PEGPH20 injection and approximately 8 hours post injection. All animals were re-dosed 3 days after the first injection except those in the PEGPH20 alone treatment group, which were not re-dosed.\nAnimals treated with only one dose of PEGPH20 were evaluated at 96 hours, 120 hours, 6, 7, 8, and 9 days post-dose."}},
  "note": "“Also recorded” adds a separate entry of the source.",
  "data": [
    {"molecule": "B1", "values": [
      {"measurement": "HA catabolites", "setting": "HA catabolites", "result": "appearance of HA catabolites"},
      {"measurement": "final enzyme activity", "setting": "[1]; PEGylated rHuPH20 material at 3.5 mg/mL", "result": "140,000 U/mL"},
      {"measurement": "specific activity", "setting": "[1]; rHuPH20 preparation vs PEGylated form", "result": "about 32,000 Units/mg"},
      {"measurement": "reaction immediately post-dose after a break in dosing", "setting": "[2]; 3040 Units/kg IV on Day 17, 26 or 33", "result": "systemic anaphylactoid-like reaction"},
      {"measurement": "musculoskeletal effects after re-dose", "setting": "[2]; 3040 Units/kg IV on Day 59, antibody-positive dogs", "result": "No musculoskeletal effects were observed"},
      {"measurement": "musculoskeletal responses, repeat daily dosing", "setting": "[2]; Day 7 through Day 9, 3800 to 15200 Units/kg", "result": "No musculoskeletal responses were observed"},
      {"measurement": "musculoskeletal responses, repeat daily dosing", "setting": "[2]; Day 12, 60800 Units/kg (1.6 mg/kg), dog 288 IV", "result": "reduced mobility 2 hours after the 60800 Units/kg (1.6 mg/kg) dose with complete recovery within 10 hours post-dose"},
      {"measurement": "musculoskeletal responses, repeat daily dosing", "setting": "[2]; Days 4 through 6, 1520 to 3040 Units/kg, IV or SC", "result": "reduced mobility (reduced ability to walk or stand), overall decreased activity, and muscle stiffness in the neck, back and extremities upon palpation; also recorded: the severity of the responses decreased from Day 4 to Day 6"},
      {"measurement": "resolution of musculoskeletal responses", "setting": "[2]; single dose 3040 U/kg on Day 1, three dogs", "result": "≤ 4", "unit": "days"},
      {"measurement": "time of musculoskeletal response post-dose", "setting": "[2]; single dose 3040 U/kg, IV or SC, three dogs", "result": "≤ 23", "unit": "h"},
      {"measurement": "musculoskeletal observations", "setting": "[2]; single dose 3040 Units/kg (0.08 mg/kg), IV or SC", "result": "reduced mobility (reduced ability to walk or stand) and tighness of muscles of the neck, back and extremities upon palpation; also recorded: reduced mobility (reduced ability to walk or stand), overall decreased activity, and muscle stiffness in the neck, back and extremities upon palpation"},
      {"measurement": "musculoskeletal observations on the following day", "setting": "[2]; single dose of either 0.08 mg/kg or 0.3 mg/kg", "result": "reduced walking ability, difficulty standing, decreased activity and tightness of the muscles of the neck, back and extremities"},
      {"measurement": "HA catabolite levels over a week", "setting": "[3]; 0.5 μg/kg to 1.5 μg/kg, 12 patients", "result": "increased in a dose-dependent manner"},
      {"measurement": "plasma concentrations of hyaluronan", "setting": "[3]; single 50 μg/kg dose", "result": "increased significantly"},
      {"measurement": "complete resolution of musculoskeletal observations post-dose", "setting": "[4]; PEGPH20 0.3 mg/kg IV alone", "result": "approximately 72 hours"},
      {"measurement": "onset of musculoskeletal observations post-dose", "setting": "[4]; PEGPH20 0.3 mg/kg IV alone", "result": "approximately 10 hours"},
      {"measurement": "musculoskeletal observations", "setting": "[4]; PEGPH20 11400 Units/kg (0.3 mg/kg) IV alone", "result": "moderate to severe musculoskeletal observations"}
    ]}
  ]
}
